Assay results taken from IntAct's records for PubMed 16938849.

B1: Mitogen-activated protein kinase kinase kinase kinase 4 (Mus musculus), P97820 (parent)
chain: MANDSPAKSLVDIDLSSLRDPAGIFELVEVVGNGTYGQVYKGRHVKTVTAAIKVMDVTEDEEEEITLEINMLKKYSHHRNIATYYGAFIKKSPPGHDDQLWLVMEFCGAGSITDLVKNTKGNTLKEDWIAYISREILRGLAHLHIHHVIHRDIKGQNVLLTENAEVKLVDFGVSAQLDRTVGRRNTFIGTPYWMAPEVIACDENPDATYDYRSDLWSCGITAIEMAEGGPPLCDMHPMRALFLIPRNPPPRLKSKKWSKKFFSFIEGCLVKNYMQRPSTEQLLKHPFIRDQPNERQVRIQLKDHIDRTRKKRGEKDETEYEYSGSEEEEEEVPEQEGEPSSIVNVPGESTLRRDFLRLQQENKERSEALRRQQLLQEQQLREQEEYKRQLLAERQKRIEQQKEQRRRLEEQQRREREARRQQEREQRRREQEEKRRLEELERRRKEEEERRRAEEEKRRVEREQEYIRRQLEEEQRHLEILQQQLLQEQAMLLHDHRRPHAQQQPPPPQQQDRSKPSFHAPEPKPHYDPADRAREVQWSHLASLKNNVSPVSRSHSFSDPSPKFAHHHLRSQDPCPPSRSEGLSQSSDSKSEVPEPTQKAWSRSDSDEVPPRVPVRTTSRSPVLSRRDSPLQGGGQQNSQAGQRNSTSSIEPRLLWERVEKLVPRPGSGSSSGSSNSGSQPGSHPGSQSGSGERFRVRSSSKSEGSPSPRQESAAKKPDDKKEVFRSLKPAGEVDLTALAKELRAVEDVRPPHKVTDYSSSSEESGTTDEEEEDVEQEGADDSTSGPEDTRAASSPNLSNGETESVKTMIVHDDVESEPAMTPSKEGTLIVRQTQSASSTLQKHKSSSSFTPFIDPRLLQISPSSGTTVTSVVGFSCDGLRPEAIRQDPTRKGSVVNVNPTNTRPQSDTPEIRKYKKRFNSEILCAALWGVNLLVGTESGLMLLDRSGQGKVYPLISRRRFQQMDVLEGLNVLVTISGKKDKLRVYYLSWLRNKILHNDPEVEKKQGWTTVGDLEGCVHYKVVKYERIKFLVIALKSSVEVYAWAPKPYHKFMAFKSFGELLHKPLLVDLTVEEGQRLKVIYGSCAGFHAVDVDSGSVYDIYLPTHIQCSIKPHAIIILPNTDGMELLVCYEDEGVYVNTYGRITKDVVLQWGEMPTSVAYIRSNQTMGWGEKAIEIRSVETGHLDGVFMHKRAQRLKFLCGRNDKVFFSSVRSGGSSQVYFMTLGRTSLLSW

Variants of: B1
Conditions: with Ezr
With D152N the “effect of a mutation on the interaction” value was “increasing interaction strength”.
